Laboratory results published in US20250000944A1, “USE OF RECOMBINANT CALRETICULIN IN HAIR GROWTH, HAIR BREEDING, HAIR PROTECTION OR ANTI-HAIR LOSS AND RELATED PRODUCT” (BEIJING YITUBAIHUI BIOTECH CO., LTD, priority 2021, published 2025).
Entries after “also recorded” stand apart in the source; their conditions may differ.

How the values were obtained:
[1] = tested on: AGA (androgenic alopecia) model mice; assay: Third experiment: hair growth score in DHT-induced AGA model mice; type: in vivo, C57BL/6N male mice; conditions: Day 17, P<0.05
Experimental: C57BL/6N male mice, 6-7 weeks old, weighing (18-20) g, 50 mice, with the animal license number of SCXK (Beijing) 2021-0006, were kept in a 12 h light/12 h dark environment, with free access to food and water. Adaptive feeding was performed for about 1 week.
The hair in an area of about 2 cm×3 cm at the border of the spine was shaved using an electric shaver. The depilatory area was applied with 8% sodium sulfide solution. After 90±10 s, the depilatory area on the back was cleaned with cotton balls dipped in water, the residual sodium sulfide was washed away with a washing bottle, and then the mice were wiped dry. Because the hair follicle cycle of mice was in the resting phase at this time, the mouse skin was pink. Mice were randomly divided into groups using Excel software, 10 mice in each group, and the modeling was established after 24 h and the drug was administered for 17 consecutive days. The AGA model was established by injecting dihydrotestosterone into the experimental mice. Dihydrotestosterone (DHT) solution was injected subcutaneously at multiple points every day, 100 μL/mouse (5 mg/kg body weight), and then the drug was administered after 3 h of absorption. CRT-2 and CRT-1 protein solutions were applied externally. 100 μL of protein solution was applied, and 100 μl of minoxidil MNX was applied. The CRT and MNX combination group was first applied with CRT-2 protein solution and then MNX 2 hours later. The solvent formula comprised 50% ethanol, 20% propylene glycol, and 30% pure water.
Scoring was based on the coverage of hair growth: • 0 points: no hair growth, pink in the hair removal area; • 1 point: gray in the hair removal area, hair coverage area E<20%; • 2 points: black in the hair removal area, hair coverage area 20%<E<40%; • 3 points: black in the hair removal area with a little hair growth, hair coverage area 40%<E<60%; • 4 points: black in the hair removal area with some hair growth, hair coverage area 60%<E<80%; • 5 points: black in the hair removal area, hair coverage area 80%<E<100%.
The skin color changes of mice were observed before administration every day. The hair removal time of mice was designated as Day 0, the first day of administration was designated as Day 1, and so on. The hair growth of each mouse was recorded and analyzed on Day 7, Day 9, Day 11, Day 13, Day 15, and Day 17.

[2] = tested on: mice with androgenic alopecia; assay: Second experiment: testosterone hair loss model, hair growth, skin blackness, scanning electron microscopy and hair follicle count; type: in vivo, C57BL/6 male mice; conditions: for hair growth on the back skin: 17th day, 0.15 mL/mouse once a day; for growth stage and quantity of back hair under dermoscope: end of experiment
Experimental: (§1) Experimental animals: C57BL/6 male mice, 6-7 weeks old, weighing (20±2) g, were provided by Beijing Vital River Laboratory Animal Technology Co. Ltd., with the animal license number of SCXK (Beijing) 2021-0006. They were kept in a 12 h light/12 h dark environment, with free access to food and water. The mice were divided into normal control group (normal group, NC), model group (Model), experimental group C (rh-CRT-2, with a concentration of 0.35 mg/ml) including an injection group and an external application group, experimental group D (rh-CRT-3, with a concentration of 0.21 mg/ml) including an injection group and external application group, and positive control-minoxidil group (Minoxidil). The proteins were stored in a −70° C. refrigerator and diluted with physiological saline when used. There were 6 mice in each group.
(§2) Modeling and drug administration: First, the hair loss model was established. One day before the modeling, the hair in the center of the back of the experimental animal was removed with a skin preparation knife, and the prepared skin area was depilated with a depilatory cream. After 24 hours of depilation, the normal control group was given 75% ethanol, and other groups were injected with testosterone solution (5 mg/mL) prepared with 75% ethanol, 0.01 mL/mouse. Two hours later, the injection groups of experimental group C and experimental group D were injected on the back, 0.15 mL/mouse, once a day, for 17 consecutive days; the external application groups of experimental group C and experimental group D were applied on the back, 0.15 mL/mouse, once a day, for 17 consecutive days. The normal control group and the model group were externally applied with physiological saline, once a day, 0.15 mL/mouse, for 17 consecutive days. During the drug administration process, except for the normal control group, all other groups were injected with the modeling agent (testosterone), and administrated with drugs after 2 hours. […] After the experiment, the mouse skin was pathologically sectioned as follows: The skin pathological tissue was fixed in 4% paraformaldehyde, trimmed, dehydrated and transparent, and then embedded. The slices were cut with a thickness of 6 μm using a paraffin slicer, and further dewaxed, stained, dehydrated, transparent and sealed. The hair follicles in different areas were observed under an optical microscope, and the number of hair follicles was statistically analyzed.
Scanning electron microscopy observation: At the end of the experiment, hair shafts were randomly plucked from the newly formed hair area on the back of each group of mice. Three mice were selected from each group. The plucked hair shafts were fixed and the changes of hair shafts and hair cuticles were observed by scanning electron microscopy.
(§3) Statistical analysis: All data were processed using SPSS 17.0 software. One-way ANOVA was used for comparisons among multiple groups. Data were expressed as mean±standard deviation (x±s). P<0.05 was considered statistically significant, and P>0.05 was not considered statistically significant.

[3] = tested on: testosterone, dihydrotestosterone, and estradiol; assay: Second experiment: hormone content in serum and skin tissue by ELISA; type: in vivo, C57BL/6 male mice; conditions: compared with the model group
Experimental: as §1, §2
Hormone content in serum and skin tissue: At the end of the experiment, blood was collected from the mice's orbits, kept at room temperature for 30 min, centrifuged at 5,000 r/min for 10 min, and the serum was removed. At the end of the experiment, skin tissue was collected and stored in a −80° C. refrigerator. During the experiment, the skin tissue was homogenized, and the changes in testosterone, dihydrotestosterone, and estradiol of the serum and skin tissue in each group were detected by enzyme-linked immunosorbent assay (ELISA).
as §3

[4] = external application group, compared with the model group

B1: CRT-2: fragment (1-349 aa) of recombinantly expressed CRT, amino acid sequence SEQ ID NO: 9 (protein)
chain: EPAVYFKEQFLDGDGWTSRWIESKHKSDFGKFVLSSGKFYGDEEKDKGLQTSQDARFYALSASFEPFSNKGQTLVVQFTVKHEQNIDCGGGYVKLFPNSLDQTDMHGDSEYNIMFGPDICGPGTKKVHVIFNYKGKNVLINKDIRCKDDEFTHLYTLIVRPDNTYEVKIDNSQVESGSLEDDWDFLPPKKIKDPDASKPEDWDERAKIDDPTDSKPEDWDKPEHIPDPDAKKPEDWDEEMDGEWEPPVIQNPEYKGEWKPRQIDNPDYKGTWIHPEIDNPEYSPDPSIYAYDNFGVLGLDLWQVKSGTIFDNFLITNDEAYAEEFGNETWGVTKAAEKQMKDKQDEEQR
B1 was tested, and the “hair growth score compared with the Model group” value ([1]; external application 100 μL, CRT 0.35 mg/ml, MNX 5 mg/ml) was “significantly increased”, the “hair growth score compared with the CRT-1 group” value ([1]; external application) was “better than; also recorded: significantly increased” and the “hair growth on the back skin” value ([2]; external application group) was “promoted hair growth the most”. For the same molecule, the “hair growth on the back skin” value ([2]; injection group) was “promoted hair growth”, the “blackness of the back skin (color tester)” value (shortened to “blackness of the back skin”) ([2]; Day 14, external application group, compared with the model group, P<0.05) was “significantly increased” and the “blackness of the back skin” value ([2]; Day 17, external application group, compared with the model group, P<0.01) was “significantly increased”. The “blackness of the back skin” value ([2]; Day 17, injection group, compared with the model group, P<0.01) was “significantly increased”, the “growth stage and quantity of back hair under dermoscope” value [2, 4] was “increased number and became thicker” and the “growth stage and quantity of back hair under dermoscope” value ([2]; injection group, compared with the model group) was “less and fine”. For the same molecule, the “hair cuticles under scanning electron microscopy” value [2, 4] was “dense”, the “hair shafts under scanning electron microscopy” value [2, 4] was “became significantly thicker” and the “number of hair follicles (pathological section)” value ([2]; external application group, compared with the model group, P<0.01) was “most significant effect”. For the same molecule, the “hair cuticles under scanning electron microscopy” value ([2]; injection group) was “dense”, the “hair shafts under scanning electron microscopy” value ([2]; injection group) was “thin” and the “number of hair follicles (pathological section)” value ([2]; injection group, compared with the model group, P<0.01) was “significantly promoted”. For the same molecule, the serum dihydrotestosterone ([3]; injection group, P<0.01) was “decreased significantly”, the skin tissue dihydrotestosterone ([3]; injection group, P<0.01) was “decreased significantly” and the “testosterone level in skin tissue” value ([3]; injection group, P<0.05) was “significantly decreased”. For the same molecule, the “testosterone level in the serum” value ([3]; injection group, P<0.05) was “significantly decreased” and the serum dihydrotestosterone ([3]; topical (external application) group, P<0.05) was “decreased significantly”.
